Assay results published in patent US20240117012A1 (KAO, published 2024).
Where two headings read alike, the source gives them in different places.

B1: His-tagged CoVHH-N2 (VHH)
VHH: EVQLVESGGGSVQAGGSLTLSCAASGFTFDDHAVGWFRQAPGKGLEWVSAISGDGYTTVYADSVKGRFTISRDNAKKTVYLQMNSLKAEDTAVYYCNAFRTDIVREYWGQGTQVTVSS
notes: also called CoVHH-N2 (His-tagged)
B2: His-tagged CoVHH-N1 (VHH)
VHH: EVQLVESGGAVVQPGGSLRLSCEASGFPFTKFWMYWVRRAPGKGLEWVAFIDTTGTITNYASSVKGRFTISRDDARNMVYLQMNDLRPEDTAIYYCATGPPGSTWVVDFHSWGQGTQVTVSS
notes: also called CoVHH-N1 (His-tagged)

Experiments:
[1] = target: T1, SARS-CoV-2 Nucleocapsid-Fc fusion protein (SARS-CoV-2, UniProt P0DTC9 1-419); test: CoVHH-N2
T1 construct: also called Fc-tagged N-protein

[2] = target: T1, SARS-CoV-2 Nucleocapsid-Fc fusion …; test: CoVHH-N1
[3] = target: T1, SARS-CoV-2 Nucleocapsid-Fc fusion …

| Binder | Kd [1] [nM] | koff [1] [s⁻¹] | kon [1] [M⁻¹ s⁻¹] | koff [2] [s⁻¹] | kon [2] [M⁻¹ s⁻¹] | Kd [3] [nM] |
| --- | --- | --- | --- | --- | --- | --- |
| B1 | 2.09 | 0.0009 | 430000 |  |  |  |
| B2 |  |  |  | 0.0017 | 3.02e+06 | 0.564 |
